According to patent US20110300138A1 (published 2011):
Values belong to the binder of their own block, whether it stands above or below them.

Columns and labels:
[1] = biological target: T1, thyroid stimulating hormone receptor (full length human TSHR) (human, UniProt P16473 22-764); experiment: competitor ^125I-K1-70 IgG, TSHR coated tubes; 0.003 µg/mL in assay buffer
T1 construct: Full length TSHR coated onto plastic tubes (TSHR coated tubes, as in WO2004/050708A2); also called TSH receptor
Method: (§1) Binding inhibition assays were carried out using TSHR coated tubes as described in WO2004/050708A2. […] After aspiration, the tubes were washed and 100 μL of ¹²⁵I-labelled protein (5×10⁴ cpm) added and incubated for 1 hour at room temperature with shaking. The tubes were then aspirated, washed and counted in a gamma counter. Inhibition of labelled protein binding was calculated as 100×[1−(cpm bound in the presence of test material/cpm bound in the presence of control material)].

[2] = biological target: T1, thyroid stimulating hormone receptor …; experiment: competitor ^125I-K1-70 IgG, TSHR coated tubes; 0.1 µg/mL in HBD
Method: as §1

[3] = biological target: T1, thyroid stimulating hormone receptor …; experiment: competitor ^125I-K1-70 IgG, TSHR coated tubes; 30 µg/mL in HBD
Method: as §1

[4] = biological target: T1, thyroid stimulating hormone receptor …; experiment: competitor ^125I-K1-70 IgG, TSHR coated tubes; 0.01 µg/mL in HBD
Method: as §1

[5] = biological target: T1, thyroid stimulating hormone receptor …; experiment: competitor ^125I-K1-70 IgG, TSHR coated tubes; 0.03 µg/mL in HBD
Method: as §1

[6] = biological target: T1, thyroid stimulating hormone receptor …; experiment: competitor ^125I-K1-70 IgG, TSHR coated tubes; 0.03 µg/mL in assay buffer
Method: as §1

[7] = biological target: T1, thyroid stimulating hormone receptor …; experiment: competitor ^125I-K1-70 IgG, TSHR coated tubes; 1 µg/mL in HBD
Method: as §1

[8] = biological target: T1, thyroid stimulating hormone receptor …; experiment: competitor ^125I-K1-70 IgG, TSHR coated tubes; 10 µg/mL in HBD
Method: as §1

[9] = biological target: T1, thyroid stimulating hormone receptor …; experiment: competitor ^125I-K1-70 IgG, TSHR coated tubes; 0.001 µg/mL in HBD
Method: as §1

[10] = biological target: T1, thyroid stimulating hormone receptor …; experiment: competitor ^125I-K1-70 IgG, TSHR coated tubes; 100 µg/mL in assay buffer
Method: as §1

[11] = biological target: T1, thyroid stimulating hormone receptor …; experiment: competitor ^125I-K1-70 IgG, TSHR coated tubes; 0.3 µg/mL in HBD
Method: as §1

[12] = biological target: T1, thyroid stimulating hormone receptor …; experiment: competitor ^125I-K1-70 IgG, TSHR coated tubes; 3 µg/mL in HBD
Method: as §1

[13] = biological target: T1, thyroid stimulating hormone receptor …; experiment: competitor ^125I-K1-70 IgG, TSHR coated tubes; 0.001 µg/mL in assay buffer
Method: as §1

[14] = biological target: T1, thyroid stimulating hormone receptor …; experiment: competitor ^125I-K1-70 IgG, TSHR coated tubes; 100 µg/mL in HBD
Method: as §1

[15] = biological target: T1, thyroid stimulating hormone receptor …; experiment: competitor ^125I-K1-70 IgG, TSHR coated tubes; 0.01 µg/mL in assay buffer
Method: as §1

[16] = biological target: T1, thyroid stimulating hormone receptor …; experiment: competitor ^125I-K1-70 IgG, TSHR coated tubes; 10 µg/mL in assay buffer
Method: as §1

[17] = biological target: T1, thyroid stimulating hormone receptor …; experiment: competitor ^125I-K1-70 IgG, TSHR coated tubes; 1 µg/mL in assay buffer
Method: as §1

[18] = biological target: T1, thyroid stimulating hormone receptor …; experiment: competitor ^125I-K1-70 IgG, TSHR coated tubes; 0.1 µg/mL in assay buffer
Method: as §1

[19] = biological target: T1, thyroid stimulating hormone receptor …; experiment: competitor ^125I-K1-70 IgG, TSHR coated tubes; 30 µg/mL in assay buffer
Method: as §1

[20] = biological target: T1, thyroid stimulating hormone receptor …; experiment: competitor ^125I-K1-70 IgG, TSHR coated tubes; 3 µg/mL in assay buffer
Method: as §1

[21] = biological target: T1, thyroid stimulating hormone receptor …; experiment: competitor ^125I-K1-70 IgG, TSHR coated tubes; 0.003 µg/mL in HBD
Method: as §1

[22] = biological target: T1, thyroid stimulating hormone receptor …; experiment: competitor ^125I-K1-70 IgG, TSHR coated tubes; 0.3 µg/mL in assay buffer
Method: as §1

B3: K1-18 IgG (antibody, V domains shown)
VH: EVQLVQSGAEVKKPGESLKISCKGSGYSFTNYWIGWVRQMPGKGLEWMGIIYPYDSDTRYSPSFEGQVTISADKSIRTAYLHWSSLKASDTAMYYCVRPRDGSYPYDAFDIWGQGTMVTVSS
VL: EIVLTQSPGTLSLSPGERATLSCRASQSVSNNYLAWYQQKPGQAPRLLIYGASSRATGIPDRFSGSGSGTDFTLTISRLEPEDFAVYYCQHCGSSLRAFGQGTKVEIKR
notes: Human IgG1 kappa purified from hetero-hybridoma supernatant; it is not part of the secreted protein; also called human monoclonal TSHR autoantibody K1-18 (stimulating)
Inhibition of binding (%) [1]: 17% | Inhibition of binding (%) [2]: 48.6% | Inhibition of binding (%) [3]: 92.2% | Inhibition of binding (%) [4]: 3.1% | Inhibition of binding (%) [5]: 20% | Inhibition of binding (%) [6]: 53.9% | Inhibition of binding (%) [7]: 85.8% | Inhibition of binding (%) [8]: 92.5% | Inhibition of binding (%) [9]: -3% | Inhibition of binding (%) [10]: 92.9% | Inhibition of binding (%) [11]: 73.9% | Inhibition of binding (%) [12]: 91% | Inhibition of binding (%) [13]: 7.2% | Inhibition of binding (%) [14]: 93.5% | Inhibition of binding (%) [15]: 30.2% | Inhibition of binding (%) [16]: 91.8% | Inhibition of binding (%) [17]: 89.6% | Inhibition of binding (%) [18]: 77.9% | Inhibition of binding (%) [19]: 91.2% | Inhibition of binding (%) [20]: 90.5% | Inhibition of binding (%) [21]: -2.7% | Inhibition of binding (%) [22]: 86.4%

B4: K1-18 Fab (Fab, V domains shown)
VH: B3 VH
VL: B3 VL
Inhibition of binding (%) [1]: 15.2% | Inhibition of binding (%) [2]: 38.4% | Inhibition of binding (%) [3]: 83.2% | Inhibition of binding (%) [4]: 1.1% | Inhibition of binding (%) [5]: 10.2% | Inhibition of binding (%) [6]: 31.3% | Inhibition of binding (%) [7]: 75.6% | Inhibition of binding (%) [8]: 82% | Inhibition of binding (%) [9]: 0.5% | Inhibition of binding (%) [10]: 86% | Inhibition of binding (%) [11]: 60.9% | Inhibition of binding (%) [12]: 80.5% | Inhibition of binding (%) [13]: 13.8% | Inhibition of binding (%) [14]: 83.6% | Inhibition of binding (%) [15]: 23.7% | Inhibition of binding (%) [16]: 81.9% | Inhibition of binding (%) [17]: 78.5% | Inhibition of binding (%) [18]: 62.8% | Inhibition of binding (%) [19]: 83.3% | Inhibition of binding (%) [20]: 79.4% | Inhibition of binding (%) [21]: -3.5% | Inhibition of binding (%) [22]: 71.4%

Results, then the binder that gave them:

Inhibition of binding (%) [1]: 24% | Inhibition of binding (%) [2]: 62.8% | Inhibition of binding (%) [3]: 94.3% | Inhibition of binding (%) [4]: 11.4% | Inhibition of binding (%) [5]: 33.6% | Inhibition of binding (%) [6]: 74.2% | Inhibition of binding (%) [7]: 90.4% | Inhibition of binding (%) [8]: 93.1% | Inhibition of binding (%) [9]: -7.6% | Inhibition of binding (%) [10]: 93.8% | Inhibition of binding (%) [11]: 82.7% | Inhibition of binding (%) [12]: 91.7% | Inhibition of binding (%) [13]: 15.3% | Inhibition of binding (%) [14]: 93.6% | Inhibition of binding (%) [15]: 50.9% | Inhibition of binding (%) [16]: 92.3% | Inhibition of binding (%) [17]: 90.8% | Inhibition of binding (%) [18]: 87.1% | Inhibition of binding (%) [19]: 93.1% | Inhibition of binding (%) [20]: 90.7% | Inhibition of binding (%) [21]: 2.2% | Inhibition of binding (%) [22]: 89.2%
B1: K1-70 IgG (antibody, V domains shown)
VH: EVQLVQSGAEVKKPGQSLKISCKASGYSLTDNWIGWVRQKPGKGLEWMGIIYPGDSDTRYSPSFQGQVTISADKSINTAYLQWSSLKASDTAIYYCVGLDWNYNPLRYWGPGTLVTVSS
VL: QSVLTQPPSVSAAPGQKVTISCSGSSSDIGSNYVSWYQQFPGTAPKLLIYDNNKRPSAIPDRFSGSKSGTSATLGITGLQTGDEADYYCGTWDSRLGIAVFGGGTQLTVLG
notes: Human IgG1 lambda purified from hetero-hybridoma supernatant

Inhibition of binding (%) [1]: 32.7% | Inhibition of binding (%) [2]: 76.5% | Inhibition of binding (%) [3]: 91% | Inhibition of binding (%) [4]: 21.6% | Inhibition of binding (%) [5]: 49.6% | Inhibition of binding (%) [6]: 81.7% | Inhibition of binding (%) [7]: 89.5% | Inhibition of binding (%) [8]: 90.6% | Inhibition of binding (%) [9]: -3.6% | Inhibition of binding (%) [10]: 91.5% | Inhibition of binding (%) [11]: 87.3% | Inhibition of binding (%) [12]: 90.9% | Inhibition of binding (%) [13]: 12.2% | Inhibition of binding (%) [14]: 90.8% | Inhibition of binding (%) [15]: 64.8% | Inhibition of binding (%) [16]: 89.8% | Inhibition of binding (%) [17]: 88.3% | Inhibition of binding (%) [18]: 87.5% | Inhibition of binding (%) [19]: 90.7% | Inhibition of binding (%) [20]: 89.4% | Inhibition of binding (%) [21]: 5.6% | Inhibition of binding (%) [22]: 88%
B2: K1-70 Fab (Fab, V domains shown)
VH: B1 VH
VL: B1 VL
